The target in experiment [1] is T1, human IL-17A (human, UniProt Q16552 24-155).
T1 construct: secreted form made in Hek293 cells (GenBank U32659); also called hIL-17A; hIL17A
Description: SPR (Biacore) off-rate. Background: SPR reads the build-up and loss of mass on a sensor chip optically.

Experiment [2] concerns the target T2, human IL-17F (human, UniProt Q96PD4 31-163).
T2 construct: made in Hek293 cells (GenBank AF384857); also called hIL-17F; hIL17F
T2 sequence: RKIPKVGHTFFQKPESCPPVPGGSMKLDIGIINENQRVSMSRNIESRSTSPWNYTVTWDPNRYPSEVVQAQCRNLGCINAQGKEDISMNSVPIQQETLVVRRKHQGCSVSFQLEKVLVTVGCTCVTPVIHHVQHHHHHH
Description: SPR (Biacore) off-rate.

The target in experiment [3] is T3, human IL-17A/F heterodimer (human, UniProt Q16552 24-155; Q96PD4 31-163, limits assumed).
T3 construct: bought, made in E. coli (R&D Systems 5194-IL/CF); also called hIL-17A/F; hIL17A/F
In words: SPR (Biacore) off-rate.

Experiment [4] concerns the target T1, human IL-17A. Description: AlphaScreen hIL-17A-IL-17RA; vs IL17MS13E02. A general note: Bead proximity is the source of the signal in Alpha formats.
For experiment [5], the target named is T2, human IL-17F. Description: AlphaScreen hIL-17F-IL-17RC; vs IL17MS13E02.
In a further experiment the target is T4, mouse IL-17A (mouse, UniProt Q62386 26-158).
T4 sequence (looked up): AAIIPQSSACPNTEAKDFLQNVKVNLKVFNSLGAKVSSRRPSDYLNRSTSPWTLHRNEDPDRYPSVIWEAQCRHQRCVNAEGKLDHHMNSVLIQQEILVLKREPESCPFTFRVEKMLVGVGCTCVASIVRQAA
In words: binding ELISA. On the technique in general: In an ELISA, binding on a coated surface is turned into a signal by an enzyme label.

The next experiment has as its target T5, rat IL-17A (rat, UniProt Q61453 18-150, limits assumed).
T5 construct: made in E. coli, bought
T5 sequence (looked up): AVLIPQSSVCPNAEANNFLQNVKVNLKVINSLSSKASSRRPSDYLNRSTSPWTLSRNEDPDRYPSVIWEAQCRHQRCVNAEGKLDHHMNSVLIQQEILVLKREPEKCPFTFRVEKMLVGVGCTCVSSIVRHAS
In words: binding ELISA.

The target in a further experiment is T6, mouse IL-17F (mouse, UniProt Q7TNI7 29-161).
T6 sequence (looked up): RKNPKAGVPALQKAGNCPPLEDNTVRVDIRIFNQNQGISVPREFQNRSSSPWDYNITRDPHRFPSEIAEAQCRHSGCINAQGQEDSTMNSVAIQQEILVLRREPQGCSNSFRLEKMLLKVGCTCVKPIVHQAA
In words: binding ELISA.

The next experiment concerns the target T7, rat IL-17F (rat, UniProt Q5BJ95 29-161).
T7 sequence (looked up): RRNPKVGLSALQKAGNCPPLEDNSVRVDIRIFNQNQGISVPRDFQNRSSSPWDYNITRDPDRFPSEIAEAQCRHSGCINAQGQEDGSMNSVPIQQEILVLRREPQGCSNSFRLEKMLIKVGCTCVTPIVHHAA
Description: binding ELISA.

In a further experiment the target is T8, human IL-17B (human, UniProt Q9UHF5 21-180).
T8 construct: expressed in E. coli; also called hIL-17B
T8 sequence (looked up): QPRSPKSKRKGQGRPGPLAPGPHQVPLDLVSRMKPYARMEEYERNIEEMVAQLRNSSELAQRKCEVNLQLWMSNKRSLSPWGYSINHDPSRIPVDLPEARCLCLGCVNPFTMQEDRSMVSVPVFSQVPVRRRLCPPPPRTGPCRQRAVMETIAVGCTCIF
In words: SPR, cytokine on chip.

In another experiment the target is T9, human IL-17C (human, UniProt Q9P0M4 19-197).
T9 construct: expressed in E. coli; also called hIL-17C
T9 sequence (looked up): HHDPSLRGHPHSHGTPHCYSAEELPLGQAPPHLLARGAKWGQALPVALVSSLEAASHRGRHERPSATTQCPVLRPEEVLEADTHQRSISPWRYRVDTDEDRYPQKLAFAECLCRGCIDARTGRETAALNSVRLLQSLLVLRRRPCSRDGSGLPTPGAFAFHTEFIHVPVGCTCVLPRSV
Description: SPR, cytokine on chip.

The next experiment addresses T10, human IL-17D (human, UniProt Q8TAD2 18-202, limits assumed).
T10 construct: expressed in E. coli; also called hIL-17D
T10 sequence (looked up): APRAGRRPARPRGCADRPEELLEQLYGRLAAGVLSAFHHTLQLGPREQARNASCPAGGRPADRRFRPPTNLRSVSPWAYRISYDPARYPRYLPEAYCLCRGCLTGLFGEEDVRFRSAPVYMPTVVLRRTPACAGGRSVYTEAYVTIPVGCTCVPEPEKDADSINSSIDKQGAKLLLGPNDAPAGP
In words: SPR, cytokine on chip.

For another experiment, the target named is T11, human IL-17E (human, UniProt Q9H293 33-177).
T11 construct: expressed in E. coli; also called hIL-17E
T11 sequence (looked up): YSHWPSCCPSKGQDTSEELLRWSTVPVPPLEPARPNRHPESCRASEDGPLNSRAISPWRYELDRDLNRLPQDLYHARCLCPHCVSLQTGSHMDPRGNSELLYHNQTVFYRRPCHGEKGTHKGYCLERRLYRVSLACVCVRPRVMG
In words: SPR, cytokine on chip.

Bounds are passed on as bounds.

T1 sequence (Q16552 other isoform, or with tags, fused parts or gaps): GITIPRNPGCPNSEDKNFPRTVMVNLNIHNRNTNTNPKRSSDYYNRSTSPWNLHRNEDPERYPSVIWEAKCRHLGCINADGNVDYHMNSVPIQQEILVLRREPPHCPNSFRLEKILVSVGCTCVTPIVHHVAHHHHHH
Description for human IL-17B: (§1) Human IL-17B, IL-17C, IL-17D or IL-17E were all expressed in E. coli, and covalently bound to a CM sensor chip surface via amine coupling using EDC/NHS for activation and HCl for deactivation.
(§2) Next, binding buffer was sent over the chip at the same flow rate to allow spontaneous dissociation of bound Nanobody or antibody.
Description for human IL-17C: as §1, §2
Description for human IL-17D: as §1, §2
Description for human IL-17E: as §1, §2
Description for mouse IL-17A: (§3) Binding of a selected panel of anti-IL-17 Nanobodies to IL-17 of other species was assessed using a binding ELISA. […] HRP (horseradish peroxidase) conjugated anti-myc (Serotec, MCA 2200P) was used for detection using esTMB as substrate.
Description for mouse IL-17F: as §3
Description for rat IL-17A: as §3
Description for rat IL-17F: as §3

B1: IL17MS3018 (VHH)
VHH: EVQLVESGGGLVQPGGSLRLSCAASGRTYDAMGWLRQAPGKEREFVAAISGSGDDTYYADSVKGRFTISKDNSGITMYLQMNSLRPEDTAVYYCATRRGLYYVWDSNDYENWGQGTLVTVSS
notes: basic variant of IL17MS13E02; Kabat numbering; also called IL17MS3018 basic
As a reminder, the koff is the first-order rate constant of dissociation. Low values mean slow dissociation, high ones fast dissociation. As for B1, the figures for the koff (with human IL-17A [1]; in the experiment with human IL-17F [2]; in [3]) were 9.26e-05 s⁻¹, 0.00267 s⁻¹ and 1.38e-05 s⁻¹, respectively. Moreover, the “IC50 fold difference vs WT” value in the experiment with human IL-17A [4] came to 1.13 fold; with human IL-17F [5], 0.8 fold.

B2: 13E02 (VHH)
VHH: EVQLVESGGGLVQAGGSLRLSCAASGRTYDAMGWLRQAPGKEREFVAAISGSGDDTYYADSVKGRFTISKDNAGITMYLQMNSLKPEDTAVYYCATRRGLYYVWDSNDYENWGQGTQVTVSS
notes: Class 4; also called IL17MS13E02
As for B2, the binding result with mouse IL-17A is “no binding (tested: 250 nM)”; in the experiment with rat IL-17A, “no binding (tested: 250 nM)”; with mouse IL-17F, “no binding (tested: 250 nM)”; with rat IL-17F, “no binding (tested: 250 nM)”; with human IL-17B it was “no binding”; with human IL-17C, “no binding”. Besides, the binding result in the experiment with human IL-17D and with human IL-17E was “no binding” in each case.

B3: IL17MS3032 (VHH)
VHH: EVQLVESGGGLVQPGGSLRLSCAASGRTYDAMGWLRQAPGKEREFVAAISGSGDDTYYADSVKGRFTISRDNSKNTMYLQMNSLRPEDTAVYYCATRRGLYYVWDSNDYENWGQGTLVTVSS
notes: variant of IL17MS13E02; Kabat numbering
Consider B3, for which, in the experiment with human IL-17F [2], the koff came to 0.00083 s⁻¹. The “IC50 fold difference vs WT” value with human IL-17A [4] worked out at 1.42 fold; in the experiment with human IL-17F [5], 0.5 fold.

B4: IL17MS3022 (VHH)
VHH: EVQLVESGGGLVQPGGSLRLSCAASGRTYDAMGWLRQAPGKEREFVAAISGSGDDTYYADSVKGRFTISKDNSGNTMYLQMNSLRPEDTAVYYCATRRGLYYVWDSNDYENWGQGTLVTVSS
notes: as for B3
Turning to B4, the koff in the experiment with human IL-17A [1] came out at 6.41e-05 s⁻¹; with human IL-17F [2], 0.0024 s⁻¹; in experiment [3] it was 9.89e-06 s⁻¹. The “IC50 fold difference vs WT” value with human IL-17A [4] amounted to 1.17 fold; with human IL-17F [5], 0.9 fold.

B5: IL17MS3019 (VHH)
VHH: EVQLVESGGGLVQPGGSLRLSCAASGRTYDAMGWFRQAPGKEREFVAAISGSGDDTYYADSVKGRFTISKDNSGITMYLQMNSLRPEDTAVYYCATRRGLYYVWDSNDYENWGQGTLVTVSS
notes: as for B3
As for B5, the koff with human IL-17A [1] is 0.000745 s⁻¹; with human IL-17F [2], 0.0349 s⁻¹; in experiment [3] it was 0.00031 s⁻¹. For the same molecule, the “IC50 fold difference vs WT” value came out at 3.72 fold with human IL-17A [4] and 4.6 fold with human IL-17F [5].

B6: IL17MS3034 (VHH)
VHH: EVQLVESGGGLVQAGGSLRLSCAASGRTYDALGWLRQAPGKEREFVAAISGSGDDTYYADSVKGRFTISKDNAGITMYLQMNSLKPEDTAVYYCATRRGLYYVWDSNDYENWGQGTQVTVSS
notes: as for B3
Turning to B6, the koff was 0.000116 s⁻¹ with human IL-17A [1], 0.00596 s⁻¹ with human IL-17F [2] and 4.02e-05 s⁻¹ in experiment [3]. Also, the “IC50 fold difference vs WT” value with human IL-17A [4] turned out to be 1.68 fold; in the experiment with human IL-17F [5], 2.7 fold.

B7: IL17MS3020 (VHH)
VHH: EVQLVESGGGLVQPGGSLRLSCAASGRTYDAMGWLRQAPGKEREFVAAISGSGDDTYYADSVKGRFTISRDNSGITMYLQMNSLRPEDTAVYYCATRRGLYYVWDSNDYENWGQGTLVTVSS
notes: as for B3
For B7, the koff with human IL-17A [1] is 2.84e-05 s⁻¹; with human IL-17F [2], 0.00147 s⁻¹; in experiment [3], < 1e-06 s⁻¹. The “IC50 fold difference vs WT” value with human IL-17A [4] was determined as 1.24 fold; in the experiment with human IL-17F [5] it was 1.3 fold.

B8: IL17MS3027 (VHH)
VHH: EVQLVESGGGLVQPGGSLRLSCAASGRTYDAMGWLRQAPGKEREFVAAISGSGDDTYYADSVKGRFTISRDNSGNTMYLQMNSLRPEDTAVYYCATRRGLYYVWDSNDYENWGQGTLVTVSS
notes: as for B3
B8 returned a koff with human IL-17F [2] of 0.0013 s⁻¹. Also, the “IC50 fold difference vs WT” value with human IL-17A [4] was determined as 1.23 fold; with human IL-17F [5], 0.6 fold.

B9: IL17MS3021 (VHH)
VHH: EVQLVESGGGLVQPGGSLRLSCAASGRTYDAMGWLRQAPGKEREFVAAISGSGDDTYYADSVKGRFTISKDNSKITMYLQMNSLRPEDTAVYYCATRRGLYYVWDSNDYENWGQGTLVTVSS
notes: as for B3
B9: the koff with human IL-17A [1] worked out at 0.000216 s⁻¹; with human IL-17F [2] it was 0.00432 s⁻¹; in experiment [3], 6.43e-05 s⁻¹. Besides, the figures for the “IC50 fold difference vs WT” value in the experiment with human IL-17A [4] and in the experiment with human IL-17F [5] were 2.75 fold and 0.9 fold, respectively.

B10: IL17MS3035 (VHH)
VHH: EVQLVESGGGLVQAGGSLRLSCAASGRTYDAMGWLRQAPGKEREFVAAISGSGDDTYYADSVKGRFTISKDNAGITLYLQMNSLKPEDTAVYYCATRRGLYYVWDSNDYENWGQGTQVTVSS
notes: as for B3
For the molecule B10, the koff in the experiment with human IL-17A [1] came out at 7.59e-05 s⁻¹; in the experiment with human IL-17F [2] it was 0.00431 s⁻¹; in [3] it was 3.65e-05 s⁻¹. The “IC50 fold difference vs WT” value in the experiment with human IL-17A [4] was found to be 2 fold; with human IL-17F [5], 1.22 fold.

B11: 13B05 (VHH)
VHH: EVQLVESGGRLVQAGGSLRLSCAASGRTFTSYPMGWFRQAPGKEREFVAAISMSGDDTAYTDFVRGRFTISRDDARNTVYLHMTSLKPEDTAVYYCAARTSYDGTYDYIDDYSYWGQGTQVTVSS
notes: Class 4
Consider B11, for which the binding result with mouse IL-17A was “no binding (tested: 250 nM)”; with rat IL-17A it was “no binding (tested: 250 nM)”; with mouse IL-17F, “no binding (tested: 250 nM)”; in the experiment with rat IL-17F, “no binding (tested: 250 nM)”; with human IL-17B it was “no binding”; in the experiment with human IL-17C, “no binding”. Also, the binding result in the experiment with human IL-17D and with human IL-17E was “no binding” in each case.

B12: 17C01 (VHH)
VHH: EVQLVESGGRLVQAGGSLRLPCAASGRTFTSYPMGWFRQAPGKEREFVAAISMSGDDAAYADFVRGRFTISRDDARNTVYLHMTSLKPEDTAVYYCAARTSYDGTYDYIDDYSYWGQGTQVTVSS
notes: Class 4
With B12, the binding result with mouse IL-17A was “no binding (tested: 250 nM)”; with rat IL-17A, “no binding (tested: 250 nM)”; with mouse IL-17F, “no binding (tested: 250 nM)”; with rat IL-17F it was “no binding (tested: 250 nM)”; in the experiment with human IL-17B, “no binding”; with human IL-17C, “no binding”. The binding result with human IL-17D and with human IL-17E was “no binding” each time.

These data come from patent publication US20210130452A1 (Merck KGaA, published 2021).
